Source: PMC4535357

Target: T1, SRSF2 (UniProt Q01130 1-221)
T1 sequence: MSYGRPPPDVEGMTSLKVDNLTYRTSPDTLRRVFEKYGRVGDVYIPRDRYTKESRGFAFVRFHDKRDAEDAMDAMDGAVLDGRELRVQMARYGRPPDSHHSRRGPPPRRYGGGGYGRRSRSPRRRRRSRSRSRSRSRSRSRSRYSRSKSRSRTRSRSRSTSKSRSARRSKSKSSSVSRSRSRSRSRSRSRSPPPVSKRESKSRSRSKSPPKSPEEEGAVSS
Assay: EMSA

B1: Mut-SRSF2 RNA (CGUA) (ssRNA)
RNA: GCACGUAUUC
- binding result: no binding
